# According to patent US20140242093A1, “METHODS AND COMPOSITIONS FOR MODULATING THE INNATE IMMUNE RESPONSE AND/OR MYOGENESIS IN A MAMMALIAN SUBJECT” (FRED HUTCHINSON CANCER RESEARCH CENTER, priority 2011, published 2014):
# Legend:
# [1] = test system: human rhabdomyosarcoma cell line RD; assay: Luciferase reporter assay with DUX4 binding sites; assay type: cell-based
# Experimental: The DUX4 binding site in the ZSCAN4 pGL3-promoter construct was either reversed in orientation (as shown in FIG. 3D) or moved downstream of the reporter gene (as shown in FIG. 3E). […] Transfections and luciferase assays were done as in main methods. Data are given as the averages±SD of triplicates.
# Transient DNA transfections of RD cells were performed using SuperFect (Qiagen) according to manufacturer specifications. Briefly, 3×10^5 cells were seeded per 35 mm plate the day prior to transfection. […] Cells were lysed 24 h post-transfection in Passive Lysis Buffer (Promega). Luciferase activities were quantified using reagents from the Dual-Luciferase Reporter Assay System (Promega) following manufacturer's instructions. Light emission was measured using BioTek Synergy2 luminometer. Luciferase data are given as the averages±SD of at least triplicates.
# Human myoblasts = assay: Expression array of the innate immune response to lentiviral infection versus uninfected cells; assay type: cell-based
# Experimental: RNA was harvested from the lenti-viral infected cells and uninfected control cells at 24 hours after infection.
molecule,measurement,setting,value
"DUX4-s: short splice form of DUX4 (SEQ ID NO:112), keeps the double-homeobox domains, lacks the C-terminal activation domain (protein, listed as Homo sapiens) MALPTPSDSTLPAEARGRGRRRRLVWTPSQSEALRACFERNPYPGIATRERLAQAIGIPEPRVQIWFQNERSRQLRQHRRESRPWPGRRGPPEGRRKRTAVTGSQTALLLRAFEKDRFPGIAAREELARETGLPESRIQIWFQNRRARHPGQGGRAPAQV",luciferase expression from pGL3-promoter reporter with 31 bp DUX4 binding site,"[1]; TRIM48 or ZSCAN4 site, co-transfection in RD cells",did not activate expression
same,effect on DUX4-fl reporter activation when co-expressed,[1]; ZSCAN4 1.9 kb reporter,interfered with the activity of DUX4-fl
same,DEFB103A and DEFB103B transcripts,Human myoblasts; expression array,not
same,CCL2 expression ratio vs GFP (.fc),"Human myoblasts; gene CCL2 NM_002982.3, vs lenti-GFP, 24 hours after infection",0.44 log2 fold change
same,CCL2 expression ratio vs NoLenti (.fc),"Human myoblasts; gene CCL2 NM_002982.3, vs uninfected, 24 hours after infection",2.82 log2 fold change
same,CCL5 expression ratio vs GFP (.fc),"Human myoblasts; gene CCL5 NM_002985.2, vs lenti-GFP, 24 hours after infection",1.89 log2 fold change
same,CCL5 expression ratio vs NoLenti (.fc),"Human myoblasts; gene CCL5 NM_002985.2, vs uninfected, 24 hours after infection",4.33 log2 fold change
same,CXCL1 expression ratio vs GFP (.fc),"Human myoblasts; gene CXCL1 NM_001511.1, vs lenti-GFP, 24 hours after infection",0.20 log2 fold change
same,CXCL1 expression ratio vs NoLenti (.fc),"Human myoblasts; gene CXCL1 NM_001511.1, vs uninfected, 24 hours after infection",3.36 log2 fold change
same,CXCL2 expression ratio vs GFP (.fc),"Human myoblasts; gene CXCL2 NM_002089.3, vs lenti-GFP, 24 hours after infection",0.00 log2 fold change
same,CXCL2 expression ratio vs NoLenti (.fc),"Human myoblasts; gene CXCL2 NM_002089.3, vs uninfected, 24 hours after infection",1.09 log2 fold change
same,CXCL5 expression ratio vs GFP (.fc),"Human myoblasts; gene CXCL5 NM_002994.3, vs lenti-GFP, 24 hours after infection",0.82 log2 fold change
same,CXCL5 expression ratio vs NoLenti (.fc),"Human myoblasts; gene CXCL5 NM_002994.3, vs uninfected, 24 hours after infection",2.60 log2 fold change
same,CXCL6 expression ratio vs GFP (.fc),"Human myoblasts; gene CXCL6 NM_002993.2, vs lenti-GFP, 24 hours after infection",0.17 log2 fold change
same,CXCL6 expression ratio vs NoLenti (.fc),"Human myoblasts; gene CXCL6 NM_002993.2, vs uninfected, 24 hours after infection",1.77 log2 fold change
same,DDX58 expression ratio vs GFP (.fc),"Human myoblasts; gene DDX58 NM_014314.3, vs lenti-GFP, 24 hours after infection",0.02 log2 fold change
same,DDX58 expression ratio vs NoLenti (.fc),"Human myoblasts; gene DDX58 NM_014314.3, vs uninfected, 24 hours after infection",2.14 log2 fold change
same,DHX58 (LGP2) expression ratio vs GFP (.fc),"Human myoblasts; gene DHX58 NM_024119.2, vs lenti-GFP, 24 hours after infection",0.70 log2 fold change
same,DHX58 (LGP2) expression ratio vs NoLenti (.fc),"Human myoblasts; gene DHX58 NM_024119.2, vs uninfected, 24 hours after infection",3.04 log2 fold change
same,IFI6 expression ratio vs GFP (.fc),"Human myoblasts; gene IFI6 NM_022872.2, vs lenti-GFP, 24 hours after infection",−0.04 log2 fold change
same,IFI6 expression ratio vs NoLenti (.fc),"Human myoblasts; gene IFI6 NM_022872.2, vs uninfected, 24 hours after infection",5.05 log2 fold change
same,IFI16 expression ratio vs GFP (.fc),"Human myoblasts; gene IFI16 NM_005531.1, vs lenti-GFP, 24 hours after infection",0.68 log2 fold change
same,IFI16 expression ratio vs NoLenti (.fc),"Human myoblasts; gene IFI16 NM_005531.1, vs uninfected, 24 hours after infection",2.52 log2 fold change
same,IFI27 expression ratio vs GFP (.fc),"Human myoblasts; gene IFI27 NM_005532.3, vs lenti-GFP, 24 hours after infection",0.27 log2 fold change
same,IFI27 expression ratio vs NoLenti (.fc),"Human myoblasts; gene IFI27 NM_005532.3, vs uninfected, 24 hours after infection",7.60 log2 fold change
same,IFI35 expression ratio vs GFP (.fc),"Human myoblasts; gene IFI35 NM_005533.2, vs lenti-GFP, 24 hours after infection",0.92 log2 fold change
same,IFI35 expression ratio vs NoLenti (.fc),"Human myoblasts; gene IFI35 NM_005533.2, vs uninfected, 24 hours after infection",4.33 log2 fold change
same,IFI44L expression ratio vs GFP (.fc),"Human myoblasts; gene IFI44L NM_006820.1, vs lenti-GFP, 24 hours after infection",0.47 log2 fold change
same,IFI44L expression ratio vs NoLenti (.fc),"Human myoblasts; gene IFI44L NM_006820.1, vs uninfected, 24 hours after infection",6.22 log2 fold change
same,IFI44 expression ratio vs GFP (.fc),"Human myoblasts; gene IFI44 NM_006417.3, vs lenti-GFP, 24 hours after infection",0.29 log2 fold change
same,IFI44 expression ratio vs NoLenti (.fc),"Human myoblasts; gene IFI44 NM_006417.3, vs uninfected, 24 hours after infection",3.59 log2 fold change
same,IFIH1 (MDA5) expression ratio vs GFP (.fc),"Human myoblasts; gene IFIH1 NM_022168.2, vs lenti-GFP, 24 hours after infection",1.66 log2 fold change
same,IFIH1 (MDA5) expression ratio vs NoLenti (.fc),"Human myoblasts; gene IFIH1 NM_022168.2, vs uninfected, 24 hours after infection",5.34 log2 fold change
same,IFIT1 expression ratio vs GFP (.fc),"Human myoblasts; gene IFIT1 NM_001548.3, vs lenti-GFP, 24 hours after infection",0.72 log2 fold change
same,IFIT1 expression ratio vs NoLenti (.fc),"Human myoblasts; gene IFIT1 NM_001548.3, vs uninfected, 24 hours after infection",5.50 log2 fold change
same,IFIT3 expression ratio vs GFP (.fc),"Human myoblasts; gene IFIT3 NM_001549.2, vs lenti-GFP, 24 hours after infection",1.81 log2 fold change
same,IFIT3 expression ratio vs NoLenti (.fc),"Human myoblasts; gene IFIT3 NM_001549.2, vs uninfected, 24 hours after infection",5.49 log2 fold change
same,IFIT5 expression ratio vs GFP (.fc),"Human myoblasts; gene IFIT5 NM_012420.1, vs lenti-GFP, 24 hours after infection",−0.28 log2 fold change
same,IFIT5 expression ratio vs NoLenti (.fc),"Human myoblasts; gene IFIT5 NM_012420.1, vs uninfected, 24 hours after infection",0.81 log2 fold change
same,IFITM1 expression ratio vs GFP (.fc),"Human myoblasts; gene IFITM1 NM_003641.3, vs lenti-GFP, 24 hours after infection",0.34 log2 fold change
same,IFITM1 expression ratio vs NoLenti (.fc),"Human myoblasts; gene IFITM1 NM_003641.3, vs uninfected, 24 hours after infection",7.08 log2 fold change
same,IFITM2 expression ratio vs GFP (.fc),"Human myoblasts; gene IFITM2 NM_006435.2, vs lenti-GFP, 24 hours after infection",0.01 log2 fold change
same,IFITM2 expression ratio vs NoLenti (.fc),"Human myoblasts; gene IFITM2 NM_006435.2, vs uninfected, 24 hours after infection",1.29 log2 fold change
same,IFITM3 expression ratio vs GFP (.fc),"Human myoblasts; gene IFITM3 NM_021034.2, vs lenti-GFP, 24 hours after infection",−0.13 log2 fold change
